According to patent US20130089893A1:

What was measured:
[1] = target: human IgG monomer (Sandoglobulin, Novartis) (human); assay: BIAcore equilibrium binding over immobilised IgG (Sandoglobulin), rounded value of the discussion
[2] = target: heat-aggregated IgG (HAGG); assay: BIAcore equilibrium binding over immobilised HAGG; KD1 against the monomer's KD
[3] = target: heat-aggregated IgG (HAGG); assay: flow cytometry: inhibition of HAGG binding to human FcγRIIb on IIA1.6 cells
[4] = target: human IgG monomer (Sandoglobulin, Novartis) (human); assay: BIAcore equilibrium binding over immobilised IgG (Sandoglobulin)
[5] = target: heat-aggregated IgG (HAGG); assay: BIAcore equilibrium binding over immobilised HAGG; two-binding site model, KD2
[6] = target: human IgG monomer (Sandoglobulin, Novartis) (human); assay: BIAcore equilibrium binding over immobilised human IgG monomer; two-binding site model, KD2
[7] = target: dimer-IgG (Wright et al., 1980); assay: flow cytometry: inhibition of dimer-IgG binding to human neutrophils
[8] = target: heat-aggregated IgG (HAGG); assay: BIAcore equilibrium binding over immobilised HAGG; two-binding site model, KD1
[9] = target: human IgG monomer (Sandoglobulin, Novartis) (human); assay: BIAcore equilibrium binding over immobilised human IgG monomer; two-binding site model, KD1
[10] = target: heat-aggregated IgG (HAGG); assay: cell-based or functional assay
[11] = target: dimer-IgG (Wright et al., 1980); assay: flow cytometry: inhibition of dimer-IgG binding to neutrophils from two different individuals
[12] = target: dimer-IgG (Wright et al., 1980); assay: flow cytometry, inhibition of dimer-IgG binding to human neutrophils (volunteer V1, Fcγ receptors m8) by purified rsFcγRIIa dimer
[13] = target: heat-aggregated IgG (HAGG); assay: BIAcore equilibrium binding, receptor injected over immobilised HAGG; single-binding site
[14] = target: human IgG monomer (Sandoglobulin, Novartis) (human); assay: BIAcore equilibrium binding, receptor injected over immobilised human IgG monomer (Sandoglobulin); single-binding site
[15] = target: ovalbumin-anti-ovalbumin immune complexes (OVA ICs); assay: cell-based or functional assay

recombinant soluble FcγRIIa dimer (rsFcγRIIa dimer), head to tail homodimer construct of FIG. 1 (from UniProt P12318 34-215) (receptor)
Kd [1]: 3 nM | fold lesser KD than monomeric rsFcγRIIa [2]: 300 fold | IC50 [3]: 0.0039 µg/mL | fold more potent than the monomer protein [3]: > 500 fold | fold greater avidity than the monomeric receptor [4]: 300 fold | Kd [5]: 99 nM | Kd [6]: 100 nM | IC50 [7]: 1.1 µg/mL | fold more active than rsFcγRIIa monomer [7]: 10 fold | Kd [8]: 2.73 nM | Kd [9]: 3.2 nM | IC50, HAGG-induced CD62P upregulation on human platelets [10]: 3.9 µg/mL | fold potency against rsFcγRIIa monomer, HAGG-induced platelet activation [10]: 5 fold | IC50 [11]: 0.9 to 1.1 µg/mL | IC50 [12]: 0.9 µg/mL

recombinant soluble FcγRIIa monomer (rsFcγRIIa monomer), expressed from pBAR426 in HEK 293E cells (from UniProt P12318 34-217) (receptor)
Kd [1]: 1000 nM | IC50 [7]: 10.5 µg/mL | Kd [13]: 1050 nM | Kd [14]: 1700 nM

rsFcγRIIa monomer (R&D Systems, Cat #1330-CD/CF) (from UniProt P12318 36-218) (receptor)
IC50 [3]: 2.08 µg/mL | IC50, TNF-α release from MC/9 cells induced by OVA ICs [15]: 17.7 µg/mL | IC50, HAGG-induced CD62P upregulation on human platelets [10]: 20.9 µg/mL
